The values below come from the supplement of paper PMC9112550, “Optimization of the antimicrobial peptide Bac7 by deep mutational scanning” (BMC Biology, 2022).

The test system of this data set is Escherichia coli TOP10. Put plainly: shrunken log2 fold change of peptide-encoding DNA abundance (4.5 h post-induction vs induction); higher = less antimicrobial activity (less host growth inhibition). As to conditions: time post-induction: 4.5 h; library: site-saturation at positions 5, 18, 19, 20.
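Note: peptides expressed intracellularly from a pBAD plasmid library in pooled LB shake-flask culture, induced with 0.3% L-arabinose, DNA abundance read by NGS, three biological replicates, DESeq2 with apeglm shrinkage.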

As for RRIRPRPPRLPRPRPRPGLSPRP, the “shrunken log2 fold change” value stood at 0.206.

On to RRIRQRPPRLPRPRPRPRNFPRP, for which the “shrunken log2 fold change” value was -0.0725.

Turning to RRIRDRPPRLPRPRPRPNAPPRP, the “shrunken log2 fold change” value worked out at 0.209.

In the case of RRIRSRPPRLPRPRPRPLRCPRP, the “shrunken log2 fold change” value amounted to 0.435.

Consider RRIRLRPPRLPRPRPRPAHAPRP, for which the “shrunken log2 fold change” value came to 0.195.

Regarding RRIRFRPPRLPRPRPRPYYGPRP, the “shrunken log2 fold change” value is -0.0202.

For the sequence RRIRFRPPRLPRPRPRPKWNPRP, the “shrunken log2 fold change” value was -0.217.

For the sequence RRIRERPPRLPRPRPRPHKPPRP, the “shrunken log2 fold change” value is -0.519.

For the sequence RRIRMRPPRLPRPRPRPYEQPRP, the “shrunken log2 fold change” value was -0.222.

On to RRIRGRPPRLPRPRPRPPWFPRP, for which the “shrunken log2 fold change” value came out at 0.772.

With RRIRFRPPRLPRPRPRPLCLPRP, the “shrunken log2 fold change” value is -0.431.

With RRIRLRPPRLPRPRPRPDNLPRP, the “shrunken log2 fold change” value is -0.186.

Take RRIRQRPPRLPRPRPRPGQFPRP: the “shrunken log2 fold change” value is 0.121.

RRIRIRPPRLPRPRPRPGMYPRP: the “shrunken log2 fold change” value was found to be 0.123.

As for RRIRWRPPRLPRPRPRPAYWPRP, the “shrunken log2 fold change” value was 0.473.

For RRIRLRPPRLPRPRPRPTFHPRP, the “shrunken log2 fold change” value came to 0.258.

Take RRIRDRPPRLPRPRPRPSQPPRP: the “shrunken log2 fold change” value was -0.0206.

In the case of RRIRMRPPRLPRPRPRPGITPRP, the “shrunken log2 fold change” value is 0.133.

As to RRIRDRPPRLPRPRPRPRHIPRP, the “shrunken log2 fold change” value is -0.25.

Turning to RRIRMRPPRLPRPRPRPIAQPRP, the “shrunken log2 fold change” value was 0.726.

Turning to RRIRYRPPRLPRPRPRPSQMPRP, the “shrunken log2 fold change” value was -0.706.

For RRIRKRPPRLPRPRPRPIELPRP, the “shrunken log2 fold change” value is -0.025.

As for RRIRWRPPRLPRPRPRPVEAPRP, the “shrunken log2 fold change” value stood at 0.249.

Consider RRIRIRPPRLPRPRPRPCYQPRP, for which the “shrunken log2 fold change” value is -0.44.

As to RRIRFRPPRLPRPRPRPFSAPRP, the “shrunken log2 fold change” value is -0.274.

For RRIRYRPPRLPRPRPRPDMWPRP, the “shrunken log2 fold change” value was -1.03.

RRIRARPPRLPRPRPRPCSSPRP: the “shrunken log2 fold change” value is 0.0291.

Take RRIRKRPPRLPRPRPRPGFFPRP: the “shrunken log2 fold change” value is 0.786.

With RRIRWRPPRLPRPRPRPVCLPRP, the “shrunken log2 fold change” value turned out to be 0.311.

Consider RRIRFRPPRLPRPRPRPFFTPRP, for which the “shrunken log2 fold change” value was -0.227.

For the sequence RRIRCRPPRLPRPRPRPYQWPRP, the “shrunken log2 fold change” value is -0.714.

As for RRIRSRPPRLPRPRPRPLSKPRP, the “shrunken log2 fold change” value is -0.0737.

With RRIRSRPPRLPRPRPRPQPFPRP, the “shrunken log2 fold change” value was -0.0168.

On to RRIRVRPPRLPRPRPRPICPPRP, for which the “shrunken log2 fold change” value is -0.0804.

Take RRIRYRPPRLPRPRPRPNCPPRP: the “shrunken log2 fold change” value was -0.272.

For RRIRYRPPRLPRPRPRPPQLPRP, the “shrunken log2 fold change” value is -0.371.

As for RRIRERPPRLPRPRPRPWRKPRP, the “shrunken log2 fold change” value was -0.173.

For RRIRSRPPRLPRPRPRPDEAPRP, the “shrunken log2 fold change” value is -0.104.

Take RRIRTRPPRLPRPRPRPMGHPRP: the “shrunken log2 fold change” value was -0.118.

Take RRIRSRPPRLPRPRPRPIPTPRP: the “shrunken log2 fold change” value was 0.2.

Take RRIRRRPPRLPRPRPRPLQPPRP: the “shrunken log2 fold change” value came to 0.873.

As for RRIRCRPPRLPRPRPRPPWTPRP, the “shrunken log2 fold change” value is 0.224.

As to RRIRMRPPRLPRPRPRPENSPRP, the “shrunken log2 fold change” value is 2.07.

As for RRIRMRPPRLPRPRPRPDVPPRP, the “shrunken log2 fold change” value turned out to be 0.323.

Take RRIRGRPPRLPRPRPRPLFTPRP: the “shrunken log2 fold change” value came out at 0.572.

RRIRARPPRLPRPRPRPWGGPRP: the “shrunken log2 fold change” value amounted to 0.605.

Regarding RRIRLRPPRLPRPRPRPGWWPRP, the “shrunken log2 fold change” value is 0.155.

For the sequence RRIRGRPPRLPRPRPRPIERPRP, the “shrunken log2 fold change” value was -0.00587.

In the case of RRIRLRPPRLPRPRPRPNMFPRP, the “shrunken log2 fold change” value is -0.225.

As to RRIRRRPPRLPRPRPRPNIWPRP, the “shrunken log2 fold change” value was 0.134.

Regarding RRIRRRPPRLPRPRPRPFGPPRP, the “shrunken log2 fold change” value amounted to 0.165.

RRIRNRPPRLPRPRPRPWKAPRP: the “shrunken log2 fold change” value is -0.0227.

Take RRIRNRPPRLPRPRPRPQHAPRP: the “shrunken log2 fold change” value was -0.0717.

Regarding RRIRIRPPRLPRPRPRPDMIPRP, the “shrunken log2 fold change” value is -0.0965.

Consider RRIRGRPPRLPRPRPRPHDCPRP, for which the “shrunken log2 fold change” value turned out to be 0.0253.

As for RRIRLRPPRLPRPRPRPRDVPRP, the “shrunken log2 fold change” value worked out at 0.176.

Regarding RRIRMRPPRLPRPRPRPPVFPRP, the “shrunken log2 fold change” value stood at 0.704.

As for RRIRARPPRLPRPRPRPSSNPRP, the “shrunken log2 fold change” value was found to be 1.2.

For the sequence RRIRYRPPRLPRPRPRPQQKPRP, the “shrunken log2 fold change” value stood at 0.0376.

As for RRIRQRPPRLPRPRPRPCIRPRP, the “shrunken log2 fold change” value was -0.0303.

With RRIRLRPPRLPRPRPRPTEWPRP, the “shrunken log2 fold change” value was -0.0906.

Consider RRIRMRPPRLPRPRPRPNCYPRP, for which the “shrunken log2 fold change” value was -0.26.

With RRIRRRPPRLPRPRPRPGSPPRP, the “shrunken log2 fold change” value was determined as 0.107.

RRIRCRPPRLPRPRPRPAHAPRP: the “shrunken log2 fold change” value was 0.373.

RRIRARPPRLPRPRPRPHRWPRP: the “shrunken log2 fold change” value was 0.0671.

Consider RRIRDRPPRLPRPRPRPAWTPRP, for which the “shrunken log2 fold change” value was -0.0791.

Consider RRIRKRPPRLPRPRPRPFTEPRP, for which the “shrunken log2 fold change” value came to 0.0246.

RRIRERPPRLPRPRPRPDTQPRP: the “shrunken log2 fold change” value is -0.116.

Take RRIRYRPPRLPRPRPRPWTHPRP: the “shrunken log2 fold change” value is -0.00149.

For the sequence RRIRYRPPRLPRPRPRPCSAPRP, the “shrunken log2 fold change” value is -0.212.

For the sequence RRIRARPPRLPRPRPRPNMWPRP, the “shrunken log2 fold change” value was 0.188.

Take RRIRCRPPRLPRPRPRPMRGPRP: the “shrunken log2 fold change” value worked out at 1.05.

RRIRDRPPRLPRPRPRPHGKPRP: the “shrunken log2 fold change” value turned out to be 0.0283.

Turning to RRIRKRPPRLPRPRPRPPMHPRP, the “shrunken log2 fold change” value turned out to be 0.636.

For RRIRSRPPRLPRPRPRPRNYPRP, the “shrunken log2 fold change” value is -0.465.

Take RRIRQRPPRLPRPRPRPWVNPRP: the “shrunken log2 fold change” value was -0.215.

On to RRIRMRPPRLPRPRPRPNLPPRP, for which the “shrunken log2 fold change” value is -0.0556.

RRIRKRPPRLPRPRPRPSDEPRP: the “shrunken log2 fold change” value was found to be 0.258.

Turning to RRIRHRPPRLPRPRPRPISPPRP, the “shrunken log2 fold change” value was -0.256.

Turning to RRIRRRPPRLPRPRPRPMFCPRP, the “shrunken log2 fold change” value came to 0.235.

RRIRCRPPRLPRPRPRPYQVPRP: the “shrunken log2 fold change” value was -0.829.

Consider RRIRSRPPRLPRPRPRPQQLPRP, for which the “shrunken log2 fold change” value was -0.0917.

Consider RRIRFRPPRLPRPRPRPKRDPRP, for which the “shrunken log2 fold change” value stood at 0.362.

Consider RRIRARPPRLPRPRPRPLCSPRP, for which the “shrunken log2 fold change” value was 0.197.

RRIRHRPPRLPRPRPRPQWTPRP: the “shrunken log2 fold change” value was -0.00992.

In the case of RRIRWRPPRLPRPRPRPPETPRP, the “shrunken log2 fold change” value was found to be 0.166.

Regarding RRIRQRPPRLPRPRPRPIMVPRP, the “shrunken log2 fold change” value is -0.0523.

For RRIRTRPPRLPRPRPRPNQFPRP, the “shrunken log2 fold change” value is -0.205.

In the case of RRIRCRPPRLPRPRPRPAEYPRP, the “shrunken log2 fold change” value was -0.335.

Regarding RRIRQRPPRLPRPRPRPGTQPRP, the “shrunken log2 fold change” value was -0.152.

On to RRIRRRPPRLPRPRPRPLDWPRP, for which the “shrunken log2 fold change” value was 0.297.

For the sequence RRIRARPPRLPRPRPRPYVCPRP, the “shrunken log2 fold change” value was -0.255.

RRIRWRPPRLPRPRPRPPACPRP: the “shrunken log2 fold change” value stood at 0.531.

For RRIRFRPPRLPRPRPRPLWEPRP, the “shrunken log2 fold change” value is -0.12.

Turning to RRIRSRPPRLPRPRPRPLDVPRP, the “shrunken log2 fold change” value is -0.21.

Consider RRIRTRPPRLPRPRPRPCHIPRP, for which the “shrunken log2 fold change” value is -0.292.

Take RRIRCRPPRLPRPRPRPTPDPRP: the “shrunken log2 fold change” value stood at 0.857.

For RRIRTRPPRLPRPRPRPTDGPRP, the “shrunken log2 fold change” value is -0.0714.

Regarding RRIRRRPPRLPRPRPRPVQLPRP, the “shrunken log2 fold change” value is -0.0275.

Take RRIRFRPPRLPRPRPRPLMHPRP: the “shrunken log2 fold change” value was -0.246.

In the case of RRIRPRPPRLPRPRPRPEAAPRP, the “shrunken log2 fold change” value is 1.13.

For RRIRIRPPRLPRPRPRPKQDPRP, the “shrunken log2 fold change” value is -0.354.

Consider RRIRCRPPRLPRPRPRPAIWPRP, for which the “shrunken log2 fold change” value came out at 0.346.

As to RRIRMRPPRLPRPRPRPPHTPRP, the “shrunken log2 fold change” value was determined as 0.824.

As for RRIRKRPPRLPRPRPRPGVVPRP, the “shrunken log2 fold change” value was found to be 0.755.

Consider RRIRDRPPRLPRPRPRPPIQPRP, for which the “shrunken log2 fold change” value was determined as 0.242.

On to RRIRTRPPRLPRPRPRPQRPPRP, for which the “shrunken log2 fold change” value was found to be 0.158.

Turning to RRIRPRPPRLPRPRPRPTNAPRP, the “shrunken log2 fold change” value was 0.167.

In the case of RRIRDRPPRLPRPRPRPRMKPRP, the “shrunken log2 fold change” value was 0.0166.

For the sequence RRIRNRPPRLPRPRPRPDMWPRP, the “shrunken log2 fold change” value is -0.119.

Consider RRIRQRPPRLPRPRPRPENPPRP, for which the “shrunken log2 fold change” value worked out at 0.0317.

RRIRIRPPRLPRPRPRPNQFPRP: the “shrunken log2 fold change” value was -0.0326.

RRIRGRPPRLPRPRPRPMYMPRP: the “shrunken log2 fold change” value is -0.169.

Turning to RRIRVRPPRLPRPRPRPFHLPRP, the “shrunken log2 fold change” value was 0.0337.

Consider RRIRMRPPRLPRPRPRPGCAPRP, for which the “shrunken log2 fold change” value was found to be 1.09.

With RRIRIRPPRLPRPRPRPDGPPRP, the “shrunken log2 fold change” value was -0.0369.

For the sequence RRIRWRPPRLPRPRPRPRMTPRP, the “shrunken log2 fold change” value was determined as 0.394.

Regarding RRIRARPPRLPRPRPRPEETPRP, the “shrunken log2 fold change” value is -0.03.

For RRIRDRPPRLPRPRPRPVNDPRP, the “shrunken log2 fold change” value was -0.163.

RRIRIRPPRLPRPRPRPVWKPRP: the “shrunken log2 fold change” value came to 0.154.

With RRIRLRPPRLPRPRPRPSYIPRP, the “shrunken log2 fold change” value was -0.427.

Consider RRIRNRPPRLPRPRPRPHGQPRP, for which the “shrunken log2 fold change” value is -0.0642.

Consider RRIRFRPPRLPRPRPRPPRAPRP, for which the “shrunken log2 fold change” value is 0.92.

With RRIRARPPRLPRPRPRPERPPRP, the “shrunken log2 fold change” value was found to be 0.556.

On to RRIRNRPPRLPRPRPRPPVNPRP, for which the “shrunken log2 fold change” value is -0.249.
